Drawing on patent US20050079574A1 (Genentech, published 2005), this text covers binding result and Kd for 8 molecules.

To fix the notation:
B1: RIG scaffold with mutation T57E (VHH, name in Kabat numbering)
VHH: DVQLQESGGGLVQAGGSLRLSCAASGRTGSTYDMGWFRQAPGKERESVAAINWDSAREYYASSVRGRFTISRDNAKKTVYLQMNSLKPEDTAVYTCGAGRIGRSVFNLRRESWVTWWGQGTQVTVSSAGGMDYKDDDDK
B2: RIG scaffold (VHH) (VHH)
VHH: B1 VHH with E58T
notes: also called RIG-Parent Scaffold; RIG VHH domain
B3: RIG scaffold alanine point mutant V100jA (VHH, name in Kabat numbering)
VHH: B1 VHH with E58T, V114A
B4: RIG scaffold alanine point mutant S100A (VHH, name in Kabat numbering)
VHH: B1 VHH with E58T, S104A
B5: VLK scaffold (VHH) (VHH)
VHH: DVQLQESGGGLVQAGGSLRLSCAASGRTGSTYDMGWFRQAPGKERESVAAINWDSARTYYASSVRGRFTISRDNAKKTVYLQMNSLKPEDTAVYTCGAGVLKRRGSSVAIFTRVQSWGQGTQVTVSSAGGMDYKDDDDK
B6: RLV scaffold (VHH) (VHH)
VHH: DVQLQESGGGLVQAGGSLRLSCAASGRTGSTYDMGWFRQAPGKERESVAAINWDSARTYYASSVRGRFTISRDNAKKTVYLQMNSLKPEDTAVYTCGAGRLVNGLSGLVSWEMPLAWGQGTQVTVSSAGGMDYKDDDDK
B7: LLR scaffold (VHH) (VHH)
VHH: DVQLQESGGGLVQAGGSLRLSCAASGRTGSTYDMGWFRQAPGKERESVAAINWDSARTYYASSVRGRFTISRDNAKKTVYLQMNSLKPEDTAVYTCGAGLLRRGVNATPNWFGLVGWGQGTQVTVSSAGGMDYKDDDDK
B8: llama anti-HCG monobody variable heavy chain (VHH), wild type (VHH)
VHH: DVQLQESGGGLVQAGGSLRLSCAASGRTGSTYDMGWFRQAPGKERESVAAINWDSARTYYASSVRGRFTISRDNAKKTVYLQMNSLKPEDTAVYTCGAGEGGTWDSWGQGTQVTVSSAGGMDYKDDDDK
notes: also called wild type anti-HCG scaffold; llama a-HCG

Residue numbers refer to the chain shown, from its start. Names and notes keep the numbering of the source.

The target in one test is T1, Protein A (UniProt P38507 37-477).
T1 construct: also called Protein A (Sigma)
Briefly: Biacore.
Turning to B1, the binding result is reported as “no binding”.

A further test deals with T1, Protein A. Briefly: BiaCore, Protein A on CM5 chip. For orientation: Surface plasmon resonance follows binding to a sensor surface in real time, without labels.
For the molecule B2, the affinity, expressed as Kd, was 800 nM.

In turn, B3 returned a dissociation constant (Kd) of 800 nM.

Turning to B4, the equilibrium dissociation constant (Kd) stood at 600 nM.

A further test addresses T1, Protein A. Nature of the test: BiaCore 3000, Protein A on CM5 chip, steady state fit. Here is the method:
The affinity for Protein A for each of the individual clones was determined using a BiaCore 3000. Protein A was coated onto CM5 chip, as was BSA and VEGF. The latter two proteins were used as negative controls. Binding isotherms were calculated the steady state response differentials for a series of protein concentrations. The equilibrium dissociation constant (Kd) was determined by fitting the resulting curves (KaleidaGraph, Synergy Software) to the following equation: Ra=[…](Rmax−Rmin)/((1+C/Kd)ⁿ) Where “Ra” is the measured response differential, “Rmax” is the maximal response differential, “Rmin” the minimal response differential and “C” is the ligand concentration. Analysis of NNS Library
On to B5, for which the equilibrium dissociation constant (Kd) was found to be 900 nM.

With B2, the dissociation constant Kd amounted to 800 nM.

For the molecule B6, the Kd stood at 1800 nM.

As for B7, the equilibrium dissociation constant (Kd) amounted to 3300 nM.

For the molecule B8, the Kd was found to be 1600 nM.

A word on the Kd: it is the equilibrium constant for the complex coming apart.
